Test results published in US20240018502A1.
Changes are numbered by the printed parent chain. In names and notes the source's numbering stands. Each block holds one binder with its values, some of them ahead of it.

Target: plasma purified human complement protein C3 (human) (UniProt P01024)
Assay: cell-based or functional assay

plasma purified human complement protein C3 (human), sequence (P01024 23-667, chain 1 of 2): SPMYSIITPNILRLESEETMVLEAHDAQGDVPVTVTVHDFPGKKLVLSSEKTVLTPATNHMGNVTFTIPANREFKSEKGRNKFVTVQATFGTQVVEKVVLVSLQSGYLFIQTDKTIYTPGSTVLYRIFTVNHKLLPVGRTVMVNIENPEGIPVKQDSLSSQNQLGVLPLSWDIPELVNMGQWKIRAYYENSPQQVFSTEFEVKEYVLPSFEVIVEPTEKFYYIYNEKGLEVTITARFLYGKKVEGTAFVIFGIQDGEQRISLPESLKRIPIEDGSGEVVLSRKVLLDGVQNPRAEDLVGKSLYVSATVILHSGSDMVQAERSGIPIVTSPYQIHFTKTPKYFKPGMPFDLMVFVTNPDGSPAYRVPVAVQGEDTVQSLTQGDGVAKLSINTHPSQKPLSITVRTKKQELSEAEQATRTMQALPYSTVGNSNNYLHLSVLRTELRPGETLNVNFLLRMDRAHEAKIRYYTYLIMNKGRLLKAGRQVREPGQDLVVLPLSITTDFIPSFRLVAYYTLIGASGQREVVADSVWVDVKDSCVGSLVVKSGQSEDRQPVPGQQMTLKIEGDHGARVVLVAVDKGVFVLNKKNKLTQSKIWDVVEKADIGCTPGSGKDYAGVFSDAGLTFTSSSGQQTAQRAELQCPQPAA
plasma purified human complement protein C3 (human), sequence (P01024 672-1663, chain 2 of 2): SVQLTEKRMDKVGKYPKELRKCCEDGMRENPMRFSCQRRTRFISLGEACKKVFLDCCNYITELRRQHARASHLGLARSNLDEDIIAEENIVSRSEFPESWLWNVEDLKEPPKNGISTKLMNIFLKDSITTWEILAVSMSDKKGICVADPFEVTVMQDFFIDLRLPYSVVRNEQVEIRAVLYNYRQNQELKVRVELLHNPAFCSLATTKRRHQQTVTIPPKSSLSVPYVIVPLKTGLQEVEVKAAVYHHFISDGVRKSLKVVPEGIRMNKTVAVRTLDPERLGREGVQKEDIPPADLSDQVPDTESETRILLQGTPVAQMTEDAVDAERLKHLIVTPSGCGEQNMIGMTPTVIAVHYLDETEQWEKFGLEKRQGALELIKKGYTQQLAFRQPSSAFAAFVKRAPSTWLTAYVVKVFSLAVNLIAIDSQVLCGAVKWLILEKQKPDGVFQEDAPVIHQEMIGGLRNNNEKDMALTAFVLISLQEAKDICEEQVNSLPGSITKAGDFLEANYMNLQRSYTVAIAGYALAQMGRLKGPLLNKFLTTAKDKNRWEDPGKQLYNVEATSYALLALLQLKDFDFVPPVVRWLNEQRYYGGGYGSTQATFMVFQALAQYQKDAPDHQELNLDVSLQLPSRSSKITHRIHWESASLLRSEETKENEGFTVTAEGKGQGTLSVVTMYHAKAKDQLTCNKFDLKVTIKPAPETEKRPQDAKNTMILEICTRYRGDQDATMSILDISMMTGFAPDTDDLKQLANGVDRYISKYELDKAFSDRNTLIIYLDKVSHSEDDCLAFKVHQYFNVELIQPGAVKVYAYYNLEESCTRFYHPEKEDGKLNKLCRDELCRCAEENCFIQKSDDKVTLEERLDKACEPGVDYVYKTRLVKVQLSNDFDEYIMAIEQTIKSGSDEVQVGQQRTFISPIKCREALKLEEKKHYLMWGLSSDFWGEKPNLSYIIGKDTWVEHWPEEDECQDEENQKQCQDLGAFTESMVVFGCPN

EC50 of hC3 cleavage: 14.2 nM
B5: MTSP-1 Q38H/I41S/D60bA/F60eV/Y60gF/ins97aE/F97T/T98G/F99L/C122S/G151N/Q175L/Q192T (enzyme)
chain: VVGGTDADEGEWPWQVSLHALGHGHSCGASLISPNWLVSAAHCYIDARGVRFSDPTQWTAFLGLHDQSQRSAPGVQERRLKRIISHPFFNDTEGLDYDIALLELEKPAEYSSMVRPISLPDASHVFPAGKAIWVTGWGHTQYGGTNALILQKGEIRVINQTTCENLLPQLITPRMMCVGFLSGGVDSCTGDSGGPLSSVEADGRIFQAGVVSWGDGCAQRNKPGVYTRLPLFRDWIKENTGV

EC50 of hC3 cleavage: 45.4 nM
B8: MTSP-1 Q38H/I41S/D60bT/F60eS/F97D/ins97aV/T98P/F99L/C122S/G151H/Q175L/Q192D (enzyme)
chain: B5 chain with A47T, V50S, F52Y, T92D, E93V, G94P, N146H, T189D

EC50 of hC3 cleavage: 63.3 nM
B9: MTSP-1 Q38R/I41E/ins97aE/F97T/T98G/F99L/C122S/Q175L/Q192T (enzyme)
chain: B5 chain with H23R, S26E, A47D, V50F, F52Y, N146G

EC50 of hC3 cleavage: 30.6 nM
B12: MTSP-1 Q38R/I41T/ins97aE/F97T/T98G/F99L/C122S/G151N/Q175L/Q192G (enzyme)
chain: B5 chain with H23R, S26T, A47D, V50F, F52Y, T189G

EC50 of hC3 cleavage: 5.08 nM
B14: MTSP-1 Q38H/I41S/D60bT/F60eT/F97D/ins97aV/T98P/F99L/C122S/G151N/Q175L/Q192V (enzyme)
chain: B5 chain with A47T, V50T, F52Y, T92D, E93V, G94P, T189V

EC50 of hC3 cleavage: 29.8 nM
B17: MTSP-1 Q38H/I41S/D60bT/F60eS/ins97aV/F97D/T98P/F99L/C122S/G151H/Q175L/Q192E (enzyme)
chain: B5 chain with A47T, V50S, F52Y, T92D, E93V, G94P, N146H, T189E

EC50 of hC3 cleavage: 38.5 nM
B18: MTSP-1 ins97aV/F97D/T98P/F99L/C122S/G151N/Q175L/Q192G (enzyme)
chain: B5 chain with H23Q, S26I, A47D, V50F, F52Y, T92D, E93V, G94P, T189G

EC50 of hC3 cleavage: 28.8 nM
B21: MTSP-1 Q38T/I41S/D60bG/F60eM/ins97aV/F97D/T98P/F99L/C122S/G151N/Q175S/Q192S (enzyme)
chain: B5 chain with H23T, A47G, V50M, F52Y, T92D, E93V, G94P, L170S, T189S

EC50 of hC3 cleavage: 4.93 nM
B25: MTSP-1 Q38H/I41T/D60bV/F60eQ/F97T/ins97aE/T98G/F99L/C122S/Q175L/Q192G (enzyme)
chain: B5 chain with S26T, A47V, V50Q, F52Y, N146G, T189G

Further lines, the binder ahead of its results:

B1: MTSP-1 Q38G/H40R/I41H/D60bN/F60eT/F97D/F99L/C122S/Q175L/Q192G (enzyme)
chain: VVGGTDADEGEWPWQVSLHALGGGRHCGASLISPNWLVSAAHCYIDNRGTRYSDPTQWTAFLGLHDQSQRSAPGVQERRLKRIISHPFFNDDTLDYDIALLELEKPAEYSSMVRPISLPDASHVFPAGKAIWVTGWGHTQYGGTGALILQKGEIRVINQTTCENLLPQLITPRMMCVGFLSGGVDSCGGDSGGPLSSVEADGRIFQAGVVSWGDGCAQRNKPGVYTRLPLFRDWIKENTGV
EC50 of hC3 cleavage: 11.9 nM

B2: MTSP-1 Q38E/H40R/I41H/D60bK/F60eT/F97D/F99L/C122S/Q175L/Q192G (enzyme)
chain: B1 chain with G23E, N47K
EC50 of hC3 cleavage: 16.6 nM

B3: MTSP-1 Q38G/H40R/I41H/D60bK/F60eT/F97D/F99L/C122S/Q175L/Q192G (enzyme)
chain: B1 chain with N47K
EC50 of hC3 cleavage: 21.3 nM

B4: MTSP-1 Q38H/I41S/D60bA/F60eV/Y60gF/F97T/ins97aE/T98G/F99L/C122S/Q175L/Q192T (enzyme)
chain: B5 chain with N146G
EC50 of hC3 cleavage: 7.46 nM

B6: MTSP-1 Q38E/I41S/D60bV/F60eK/ins97aE/F97T/T98G/F99L/C122S/G151N/Q175L/Q192I (enzyme)
chain: B5 chain with H23E, A47V, V50K, F52Y, T189I
EC50 of hC3 cleavage: 19.1 nM

B7: MTSP-1 Q38H/I41A/D60bV/F60eI/Y60gW/F97T/ins97aE/T98G/F99L/C122S/G151N/Q175L/Q192D (enzyme)
chain: B5 chain with S26A, A47V, V50I, F52W, T189D
EC50 of hC3 cleavage: 2.91 nM

B10: MTSP-1 Q38G/H40R/I41H/D60bH/F60eK/F97T/ins97aE/T98G/F99L/C122S/Q175L/V183A/Q192G (enzyme)
chain: B5 chain with H23G, H25R, S26H, A47H, V50K, F52Y, N146G, V178A, T189G
EC50 of hC3 cleavage: 27.7 nM

B11: MTSP-1 Q38D/I41S/D60bT/F60eR/ins97aV/F97D/T98P/F99L/C122S/G151K/Q175S/Q192V (enzyme)
chain: B5 chain with H23D, A47T, V50R, F52Y, T92D, E93V, G94P, N146K, L170S, T189V
EC50 of hC3 cleavage: 48.1 nM

B13: MTSP-1 Q38H/I41A/D60bE/F60eH/Y60gW/ins97aE/F97T/T98G/F99L/C122S/Q175L/Q192D (enzyme)
chain: B5 chain with S26A, A47E, V50H, F52W, N146G, T189D
EC50 of hC3 cleavage: 5.38 nM

B15: MTSP-1 Q38H/I41A/F97T/ins97aE/T98G/F99L/C122S/Q175L/Q192G (enzyme)
chain: B5 chain with S26A, A47D, V50F, F52Y, N146G, T189G
EC50 of hC3 cleavage: 3.9 nM

B16: MTSP-1 Q38H/I41A/D60bV/F60eT/Y60gW/ins97aE/F97T/T98G/F99L/C122S/Q175L/Q192E (enzyme)
chain: B5 chain with S26A, A47V, V50T, F52W, N146G, T189E
EC50 of hC3 cleavage: 1.39 nM

B19: MTSP-1 Q38E/I41S/D60bH/F60eI/F97T/ins97aE/T98G/F99L/C122S/Q175L/Q192V (enzyme)
chain: B5 chain with H23E, A47H, V50I, F52Y, N146G, T189V
EC50 of hC3 cleavage: 10.4 nM

B20: MTSP-1 Q38H/I41A/D60bV/F60eR/Y60gW/ins97aE/F97T/T98G/F99L/C122S/Q175L/Q192D (enzyme)
chain: B5 chain with S26A, A47V, V50R, F52W, N146G, T189D
EC50 of hC3 cleavage: 2.37 nM

B22: MTSP-1 Q38H/I41A/D60bT/F60eK/Y60gW/ins97aE/F97T/T98G/F99L/C122S/Q175L/Q192D (enzyme)
chain: B5 chain with S26A, A47T, V50K, F52W, N146G, T189D
EC50 of hC3 cleavage: 3.82 nM

B23: MTSP-1 F97D/ins97aV/T98P/F99L/C122S/G151N/Q175L/Q192E (enzyme)
chain: B5 chain with H23Q, S26I, A47D, V50F, F52Y, T92D, E93V, G94P, T189E
EC50 of hC3 cleavage: 194 nM

B24: MTSP-1 Q38H/I41A/D60bE/F60eH/Y60gW/F97T/ins97aE/T98G/F99L/C122S/G151N/Q175L/Q192D (enzyme)
chain: B5 chain with S26A, A47E, V50H, F52W, T189D
EC50 of hC3 cleavage: 8.28 nM

B26: MTSP-1 Q38H/I41A/D60bV/F60eI/ins97aE/F97T/T98G/F99L/C122S/Q175L/Q192E (enzyme)
chain: B5 chain with S26A, A47V, V50I, F52Y, N146G, T189E
EC50 of hC3 cleavage: 7.64 nM
